Laboratory results taken from the Immune Epitope Database (IEDB).

Columns and labels:
HLA-A*01:01 [1] = assay: IEDB peptide-MHC binding, purified MHC/direct/fluorescence; filed as Kd, often an IC50 or EC50 that approximates it; ≥ and ≤ were set here for values at or beyond the usual limits of such assays
HLA-A*03:01 [2] = assay: as above
HLA-A*11:01 [3] = assay: as above
HLA-A*26:01 = assay: as above; conditions: source organism: Giardia lamblia ATCC 50803
HLA-A*31:01 = assay: as above
HLA-A*69:01 = assay: as above
HLA-B*07:02 = assay: as above
HLA-B*08:01 = assay: as above
HLA-B*15:01 [4] = assay: as above
HLA-B*27:05 = assay: as above; conditions: source organism: Giardia lamblia ATCC 50803
HLA-B*40:01 = assay: as above; conditions: source organism: Giardia lamblia ATCC 50803
HLA-B*44:02 = assay: as above
HLA-B*58:01 = assay: as above
HLA-B*15:42 = assay: IEDB peptide-MHC binding, purified MHC/competitive/fluorescence; filed as Kd, often an IC50 or EC50 that approximates it; ≥ and ≤ were set here for values at or beyond the usual limits of such assays; conditions: source organism: Giardia lamblia ATCC 50803
HLA-B*45:06 = assay: as above; conditions: source organism: Giardia lamblia ATCC 50803
HLA-B*83:01 = assay: as above; conditions: source organism: Giardia lamblia ATCC 50803
HLA-C*03:03 = assay: IEDB peptide-MHC binding, purified MHC/direct/fluorescence; filed as Kd, often an IC50 or EC50 that approximates it; ≥ and ≤ were set here for values at or beyond the usual limits of such assays
HLA-A*24:03 = assay: IEDB peptide-MHC binding, purified MHC/competitive/fluorescence; filed as Kd, often an IC50 or EC50 that approximates it; ≥ and ≤ were set here for values at or beyond the usual limits of such assays; conditions: source organism: Bacillus anthracis str. A2012
HLA-C*07:02 = assay: IEDB peptide-MHC binding, purified MHC/direct/fluorescence; filed as Kd, often an IC50 or EC50 that approximates it; ≥ and ≤ were set here for values at or beyond the usual limits of such assays
HLA-B*35:01 = assay: IEDB peptide-MHC binding, purified MHC/competitive/radioactivity; filed as Kd, often an IC50 or EC50 that approximates it; ≥ and ≤ were set here for values at or beyond the usual limits of such assays; conditions: source organism: SARS coronavirus Tor2
HLA-B*51:01 = assay: as above; conditions: source organism: SARS coronavirus Tor2
HLA-B*53:01 = assay: as above; conditions: source organism: SARS coronavirus Tor2
HLA-B*54:01 = assay: as above; conditions: source organism: SARS coronavirus Tor2
HLA-A*02:01 [5] = assay: IEDB peptide-MHC binding, purified MHC/direct/fluorescence; filed as Kd, often an IC50 or EC50 that approximates it; ≥ and ≤ were set here for values at or beyond the usual limits of such assays
HLA-A*29:02 = assay: as above; conditions: source organism: Mammarenavirus juninense
HLA-B*18:01 = assay: as above; conditions: source organism: Mammarenavirus juninense
HLA-B*46:01 = assay: as above; conditions: source organism: Mammarenavirus juninense
HLA-B*48:01 = assay: as above; conditions: source organism: Mammarenavirus juninense
HLA-B*57:01 = assay: as above; conditions: source organism: Mammarenavirus juninense
HLA-B*39:01 = assay: IEDB peptide-MHC binding, purified MHC/competitive/fluorescence; filed as Kd, often an IC50 or EC50 that approximates it; ≥ and ≤ were set here for values at or beyond the usual limits of such assays; conditions: source organism: Mammarenavirus juninense
HLA-A*01:01 [6] = assay: IEDB peptide-MHC binding, purified MHC/competitive/fluorescence; ≥ and ≤ were set here for values at or beyond the usual limits of such assays
HLA-A*02:01 [7] = assay: as above
HLA-A*03:01 [8] = assay: as above; conditions: source organism: Zaire ebolavirus
HLA-A*11:01 [9] = assay: as above; conditions: source organism: Zaire ebolavirus
HLA-B*15:01 [10] = assay: as above; conditions: source organism: Zaire ebolavirus
HLA-A*24:02 = assay: as above; conditions: source organism: Zaire ebolavirus
HLA-A*30:01 = assay: IEDB peptide-MHC binding, purified MHC/direct/fluorescence; filed as Kd, often an IC50 or EC50 that approximates it; ≥ and ≤ were set here for values at or beyond the usual limits of such assays; conditions: source organism: Camelpox virus CMS
[11] = source organism: Giardia lamblia ATCC 50803
[12] = source organism: Mammarenavirus juninense
[13] = source organism: Zaire ebolavirus
[14] = source organism: Camelpox virus CMS
[15] = source organism: Brucella abortus 2308
[16] = source organism: Sudan ebolavirus
[17] = source organism: Yellow fever virus

With AEFPVGSTA the Kd (HLA-A*01:01 [1]; [11]) was no less than 20 µM, the Kd (HLA-A*03:01 [2]; [11]) was no less than 20 µM and the Kd (HLA-A*11:01 [3]; [11]) was no less than 20 µM. It also gave a Kd (HLA-A*26:01) of no less than 20 µM, a Kd (HLA-A*31:01; [11]) of no less than 20 µM and a Kd (HLA-A*69:01; [11]) of no less than 20 µM. The Kd (HLA-B*07:02; [11]) was no less than 20 µM, the Kd (HLA-B*08:01; [11]) was no less than 20 µM and the Kd (HLA-B*15:01 [4]; [11]) was no less than 20 µM. The Kd (HLA-B*27:05) was no less than 20 µM, the Kd (HLA-B*40:01) was 0.41 µM and the Kd (HLA-B*44:02; [11]) was no less than 20 µM. The Kd (HLA-B*58:01; [11]) was no less than 20 µM, the Kd (HLA-B*15:42) was no less than 5 µM and the Kd (HLA-B*45:06) was no less than 5 µM. The Kd (HLA-B*83:01) was no less than 5 µM.
With FAKPAGTPM the Kd (HLA-C*03:03; source organism: Burkholderia cenocepacia HI2424) was no more than 0.001 µM.
FFSPVIASL gave a Kd (HLA-C*03:03; source organism: Bacillus anthracis str. A2012) of no more than 0.001 µM and a Kd (HLA-A*24:03) of no more than 0.0001 µM.
Sequence FPREGVFVF has a Kd (HLA-B*07:02; source organism: SARS-CoV1) of 0.131 µM, a Kd (HLA-B*08:01; source organism: SARS-CoV1) of 0.116 µM and a Kd (HLA-B*15:01 [4]; source organism: SARS-CoV1) of 2.14 µM. For the same sequence, the Kd (HLA-C*07:02; source organism: SARS-CoV1) was 0.51 µM, the Kd (HLA-B*35:01) was 0.000684 µM and the Kd (HLA-B*51:01) was 0.0314 µM. The Kd (HLA-B*53:01) was 0.00536 µM and the Kd (HLA-B*54:01) was 0.0925 µM.
Work on FRRVAHSSL yielded a Kd (HLA-A*01:01 [1]; [12]) of no less than 20 µM, a Kd (HLA-A*02:01 [5]; [12]) of no less than 20 µM and a Kd (HLA-A*03:01 [2]; [12]) of no less than 20 µM. For the same sequence, the Kd (HLA-A*29:02) was no less than 20 µM, the Kd (HLA-A*31:01; [12]) was no less than 20 µM and the Kd (HLA-A*69:01; [12]) was no less than 20 µM. It also gave a Kd (HLA-B*15:01 [4]; [12]) of no less than 20 µM, a Kd (HLA-B*18:01) of no less than 20 µM and a Kd (HLA-B*44:02; [12]) of no less than 20 µM. For the same sequence, the Kd (HLA-B*46:01) was no less than 20 µM, the Kd (HLA-B*48:01) was no less than 20 µM and the Kd (HLA-B*57:01) was no less than 20 µM. It also gave a Kd (HLA-B*58:01; [12]) of no less than 20 µM, a Kd (HLA-C*07:02; [12]) of 0.053 µM and a Kd (HLA-B*39:01) of 0.377 µM.
Work on GSYGEYQSY yielded an IC50 (HLA-A*01:01 [6]; [13]) of 9.91 µM, an IC50 (HLA-A*02:01 [7]; [13]) of no less than 154 µM and an IC50 (HLA-A*03:01 [8]) of 26.1 µM. The IC50 (HLA-A*11:01 [9]) was 1.29 µM and the IC50 (HLA-B*15:01 [10]) was 3.51 µM.
For GTNETEYLF, the IC50 (HLA-A*01:01 [6]; [13]) was no less than 373 µM, the IC50 (HLA-A*02:01 [7]; [13]) was 20.9 µM and the IC50 (HLA-A*24:02) was 8.71 µM.
Sequence HYRPYHYYH has a Kd (HLA-A*03:01 [2]; [14]) of no less than 20 µM, a Kd (HLA-A*11:01 [3]; [14]) of no less than 20 µM and a Kd (HLA-A*30:01) of 0.023 µM. For the same sequence, the Kd (HLA-A*31:01; [14]) was 0.0032 µM and the Kd (HLA-C*07:02; [14]) was 0.013 µM.
KQLEYSWVL showed a Kd (HLA-A*02:01 [5]; [15]) of 0.0017 µM, a Kd (HLA-A*69:01; [15]) of 0.846 µM and a Kd (HLA-C*03:03; source organism: Brucella canis ATCC 23365) of no less than 20 µM.
VSYEAGEWA was tested, and the IC50 (HLA-A*01:01 [6]; [16]) was 50.3 µM and the IC50 (HLA-A*02:01 [7]; [16]) was 15 µM.
YLIIGILTL showed a Kd (HLA-A*69:01; [17]) of no less than 20 µM and a Kd (HLA-C*03:03; [17]) of 0.018 µM.
